We go through 13 molecules from patent US20220267464A1 (Hoffmann-La Roche, published 2022).

T1: human CEACAM5 (carcinoembryonic antigen, CEA) on cells (human, UniProt P06731 35-685)
T1 construct: endogenous on MKN45 gastric adenocarcinoma cells; full-length cDNA stably transfected in the CHO-K1 clones; also called huCEACAM5; MKN45 cells
T1 sequence: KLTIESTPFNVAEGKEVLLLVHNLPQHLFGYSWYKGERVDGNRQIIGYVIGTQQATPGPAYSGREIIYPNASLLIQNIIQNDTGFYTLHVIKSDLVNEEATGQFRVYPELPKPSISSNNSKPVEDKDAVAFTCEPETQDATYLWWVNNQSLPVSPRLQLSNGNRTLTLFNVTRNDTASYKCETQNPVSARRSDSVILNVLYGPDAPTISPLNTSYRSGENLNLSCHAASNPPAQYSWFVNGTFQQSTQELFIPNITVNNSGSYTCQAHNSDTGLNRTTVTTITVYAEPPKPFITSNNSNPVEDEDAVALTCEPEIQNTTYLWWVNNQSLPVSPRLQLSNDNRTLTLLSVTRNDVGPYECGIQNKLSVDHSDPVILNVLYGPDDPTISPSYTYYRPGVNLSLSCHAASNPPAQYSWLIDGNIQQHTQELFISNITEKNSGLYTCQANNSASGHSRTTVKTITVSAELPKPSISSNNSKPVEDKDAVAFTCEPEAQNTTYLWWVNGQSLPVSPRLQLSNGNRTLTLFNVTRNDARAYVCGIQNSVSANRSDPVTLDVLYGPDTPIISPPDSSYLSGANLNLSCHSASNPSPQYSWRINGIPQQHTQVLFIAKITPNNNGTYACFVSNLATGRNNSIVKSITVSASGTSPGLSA

T2: hu N(A2-B2)A-avi-His (human, biotin on the avi tag where used biotinylated)
T2 construct: chimeric soluble antigen; also called hu N(A2-B2)A-avi-His B; human CEA (A2 domain)
T2 chain: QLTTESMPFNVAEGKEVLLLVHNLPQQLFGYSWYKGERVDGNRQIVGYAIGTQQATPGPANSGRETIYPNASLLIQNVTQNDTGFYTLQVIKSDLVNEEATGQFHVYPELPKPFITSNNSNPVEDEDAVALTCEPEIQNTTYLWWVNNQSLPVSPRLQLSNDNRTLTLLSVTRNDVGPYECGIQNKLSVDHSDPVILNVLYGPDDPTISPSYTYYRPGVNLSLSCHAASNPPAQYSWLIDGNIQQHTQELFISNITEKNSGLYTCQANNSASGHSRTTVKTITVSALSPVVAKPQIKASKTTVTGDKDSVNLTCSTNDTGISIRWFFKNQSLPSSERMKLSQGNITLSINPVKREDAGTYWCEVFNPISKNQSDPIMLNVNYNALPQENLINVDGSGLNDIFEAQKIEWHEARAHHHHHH

B1: P1AE3106 (antibody, IgG1, V domains shown)
VH: QVQLVQSGAEVKKPGASVKVSCKASGYTFKDSYMHWVRQAPGQGLEWMGWIDPENGDTEYAPKFQGRVTMTTDTSISTAYMELSRLRSDDTAVYYCNEGTPTGPYYFDYWGQGTLVTVSS
VL: EIQMTQSPSSLSASVGDRVTITCRASSSVPYMHWYQQKPGKAPKLLIYSTSNLASGVPSRFSGSGSGTDFTLTISSVQPEDFATYYCQQRSSYPLTFGGGTKLEIK
notes: huIgG1 P329G LALA; also called MFE-H25 / MFE-L27
B2: P1AE3117 (antibody, IgG1, V domains shown)
VH: B1 VH with Y27F, T28N, F29I, D57G, E59N, P62Q
VL: B1 VL with P30S, V77L
notes: huIgG1 P329G LALA; also called MFE-H26 / MFE-L25
B3: P1AE3116 (antibody, IgG1, V domains shown)
VH: B1 VH with Y27F, T28N, F29I, N97A, E98R
VL: B1 VL with P30S, V77L
notes: huIgG1 P329G LALA; also called MFE-H27 / MFE-L25
B4: P1AE3118 (antibody, IgG1, V domains shown)
VH: B1 VH
VL: B1 VL with P30S, V77L
notes: huIgG1 P329G LALA; also called MFE-H25 / MFE-L25
B5: P1AE3122 (antibody, IgG1, V domains shown)
VH: B1 VH with Y27F, T28N, F29I, N97A, E98R
VL: B1 VL with E1D, P30S, V77L
notes: huIgG1 P329G LALA; also called MFE-H27 / MFE-L24
B6: P1AE3123 (antibody, IgG1, V domains shown)
VH: B1 VH with Y27F, T28N, F29I, D57G, E59N, P62Q
VL: B1 VL with E1D, P30S, V77L
notes: huIgG1 P329G LALA; also called MFE-H26 / MFE-L24
B7: P1AE3124 (antibody, IgG1, V domains shown)
VH: B1 VH
VL: B1 VL with E1D, P30S, V77L
notes: huIgG1 P329G LALA; also called MFE-H25 / MFE-L24
B8: P1AE4138 (Fab, V domains shown)
VH: EVQLLESGGGLVQPGGSLRLSCAASGFTFTDYYMNWVRQAPGKGLEWLGFIGNKANGYTTEYSASVKGRFTISRDKSKNTLYLQMNSLRAEDTATYYCTRDRGLRFYFDYWGQGTTVTVSS
VL: EIVLTQSPATLSLSPGERATLSCRASSSVTYIHWYQQKPGQAPRSWIYATSNLASGIPARFSGSGSGTDFTLTISSLEPEDFAVYYCQHWSSKPPTFGQGTKLEIK
notes: Fab fragment; Ckappa light chain; also called Fab derived from P1AE2167
B9: P1AE4135 (Fab, V domains shown)
VH: B8 VH
VL: B8 VL with E1Q, I2T, Q41S, A42S, R44K, F70Y
notes: Fab fragment; also called Fab derived from P1AE2164
B10: P1AE4139 (Fab, V domains shown)
VH: B8 VH with L48V, K76N, T95V
VL: B8 VL with Q41S, A42S, R44K
notes: Fab fragment; also called Fab derived from P1AE2176
B11: P1AE4137 (Fab, V domains shown)
VH: B8 VH
VL: B8 VL with Q41S, A42S, R44K
notes: Fab fragment; also called Fab derived from P1AE2166
B12: P1AE4136 (Fab, V domains shown)
VH: B8 VH
VL: B8 VL with E1Q, I2T, S45L, W46L
notes: Fab fragment; also called Fab derived from P1AE2165
B13: P1AE0289 CEA (A5B7) Fab (parental murine antibody) (Fab, V domains shown)
VH: EVKLVESGGGLVQPGGSLRLSCATSGFTFTDYYMNWVRQPPGKALEWLGFIGNKANGYTTEYSASVKGRFTISRDKSQSILYLQMNTLRAEDSATYYCTRDRGLRFYFDYWGQGTTLTVSS
VL: QTVLSQSPAILSASPGEKVTMTCRASSSVTYIHWYQQKPGSSPKSWIYATSNLASGVPARFSGSGSGTSYSLTISRVEAEDAATYYCQHWSSKPPTFGGGTKLEIK
notes: Fab fragment

Residue numbers refer to the chain shown, from its start. Names may count otherwise.

The first assay addresses T1, human CEACAM5 (carcinoembryonic …). The experiment in a line: flow cytometry, MKN45 cells. On the set-up: AUC: unit not given beside the values.
Regarding B1, the AUC was 1130.

The molecule B2 yielded an AUC of 1180.

B3: the AUC came to 443.

The molecule B4 registered an AUC of 559.

Consider B5, for which the AUC amounted to 422.

Turning to B6, the AUC stood at 1090.

The molecule B7 displayed an AUC of 847.

In another assay the target is T2, hu N(A2-B2)A-avi-His. The experiment in a line: SPR (Biacore T200), antigen on CM5 chip, Fab as analyte. The text has this:
Data were double-referenced against the unimmobilized flow cell 1 and a zero concentration of the analyte. The sensorgrams of the analytes were fitted to a simple 1:1 Langmuir interaction model.
Background: Surface plasmon resonance follows binding to a sensor surface in real time, without labels.
Take B8: binding was put at a Kd of 1.47 nM.

On to B9, for which the Kd (in general, the equilibrium constant for the complex coming apart) was 1.7 nM.

Turning to B10, the Kd is 7.58 nM.

In turn, B11 showed a Kd of 11.3 nM.

B12: the Kd came out at 1.25 nM.

As for B13, binding was characterised by a dissociation constant (Kd) of 0.559 nM.

The next assay deals with T1, human CEACAM5 (carcinoembryonic …). The experiment in a line: flow cytometry, MKN-45 cells, goat F(ab')2 anti-human Fcγ-PE, gMFI.
On to B1, for which the binding result is given as “no binding (tested: about 300 nM)”.

Take B2: the binding result is given as “no binding (tested: about 300 nM)”.

B3: the binding result is on record as “no binding (tested: about 300 nM)”.

Consider B4, for which the binding result was “no binding (tested: about 300 nM)”.

As for B5, the binding result is listed as “no binding (tested: about 300 nM)”.

B6: the binding result is given as “no binding (tested: about 300 nM)”.

Regarding B7, the binding result was “no binding (tested: about 300 nM)”.
